Laboratory results from article PMC3926522.

Tests used:
thrombin [1] = target: T1, thrombin (human, UniProt P00734;P00734 315-363;364-622); experiment: whispering gallery mode microsphere resonator
thrombin [2] = target: T1, thrombin; experiment: whispering gallery mode microsphere resonator; remark: listed apart in the source

Row | Binder | binding result (thrombin [1]) | Kd (thrombin [2]) [nM]
1 | TATGAATTCAATCCGTCGAGCAGAGTT (ssDNA, 5' amino) [non-thrombin (non-aptamer) oligonucleotide] | no binding | –
2 | CCAACCCAACGGTTGGTGTGGTTGG (structured_DNA, 5' amino) [anti-thrombin aptamer oligonucleotide] | – | ~1000
